The results in this text go back to paper PMC4454046, “Aptamer-based Sandwich Assay and its Clinical Outlooks for Detecting Lipocalin-2 in Hepatocellular Carcinoma (HCC)”.

As a reminder, the Kd is the constant that tells how readily two partners part at equilibrium.

The labels stand for the following.
B1: LCN2_apta11 (ssDNA)
DNA: ATACCAGCTTATTCAATTGCGATCGACGCCTGGAGAAGTTCCAGCATTAGCGTAAGTGAGATAGTAAGTGCAATCT
B2: LCN2_apta23 (ssDNA)
DNA: ATACCAGCTTATTCAATTCGTATCAGAATCGCGTGTCACCTTATCTGCCGTATGGGTGAGATAGTAAGTGCAATCT
B3: LCN2_apta34 (ssDNA)
DNA: ATACCAGCTTATTCAATTCGGAGCGGTAGTTTGAGGAGGAAACAACCCGGCCTTGGAGAGATAGTAAGTGCAATCT
B4: LCN2_apta6 (ssDNA)
DNA: ATACCAGCTTATTCAATTGCACGGTACGCTCTTGAGTGATCCACAATTTCTAACCGCGAGATAGTAAGTGCAATCT
B5: LCN2_apta21 (ssDNA)
DNA: ATACCAGCTTATTCAATTCCGGATTTTCGCACGGCTAGCGGGGAACCACTGTCTGGGAGATAGTAAGTGCAATCT
B6: LCN2_apta5 (ssDNA)
DNA: ATACCAGCTTATTCAATTCCCAGCAATCCATTACTTCGTTAGTTCTAATTACCAACCAGATAGTAAGTGCAATCT
B7: LCN2_apta1 (ssDNA)
DNA: ATACCAGCTTATTCAATTGCCACGACTTGGGGAATCCTAAGGGCTGTGAACGCCGTGGAGATAGTAAGTGCAATCT
B8: LCN2_apta26 (ssDNA)
DNA: ATACCAGCTTATTCAATTCCAACACCTTGGGTATCCTGTTATATTCACTTGTTGAGTAAGATAGTAAGTGCAATCT
B9: LCN2_apta20 (ssDNA)
DNA: ATACCAGCTTATTCAATTCCACAAACGGTACTGGACAGTTCTTATATGCTTACATTTGAGATAGTAAGTGCAATCT
B10: LCN2_apta24 (ssDNA)
DNA: ATACCAGCTTATTCAATTGGGGAACTGAATTATCAGAGATTTTATTCACCTCGTTGGGAGATAGTAAGTGCAATCT
B11: LCN2_apta18 (ssDNA)
DNA: ATACCAGCTTATTCAATTCCAGCAAGTAAAGGTTATTTACTAGTTAGGGGCTTCTTGAGATAGTAAGTGCAATCT
B12: LCN2_apta22 (ssDNA)
DNA: ATACCAGCTTATTCAATTCCAACGAGGATGCCAAAGAAAGGTGAGGTGGTCCTAAGGGAGATAGTAAGTGCAATCT
B13: LCN2_apta10 (ssDNA)
DNA: ATACCAGCTTATTCAATTGGCAGTAGGGCGGGGGGGAGCATGGAGCACATTCTTGTCGAGATAGTAAGTGCAATCT
B14: LCN2_apta19 (ssDNA)
DNA: ATACCAGCTTATTCAATTCGACAAAGGAGCTACGTCTACATAGCGTGGTGAGTGCTTGAGATAGTAAGTGCAATCT
B15: LCN2_apta32 (ssDNA)
DNA: ATACCAGCTTATTCAATTCGAGTCATTGTTTTGCAAAGGATTATGCGTTGTAACGGAGAGATAGTAAGTGCAATCT
B16: LCN2_apta13 (ssDNA)
DNA: ATACCAGCTTATTCAATTCGCGGCCTAACTTTGGAAGTTCCTCAGAATACTCAGTTGAGATAGTAAGTGCAATCT
B17: LCN2_apta29 (ssDNA)
DNA: ATACCAGCTTATTCAATTCCGTGACAAGTTGCAGGGGCTGTGCGGTTCTTTTTTTTTGAGATAGTAAGTGCAATCT
B18: LCN2_apta8 (ssDNA)
DNA: ATACCAGCTTATTCAATTCGACAATAGATCAGAACGCTCGAGTTCGCGAGGTGGGGGAGATAGTAAGTGCAATCT
B19: LCN2_apta27 (ssDNA)
DNA: ATACCAGCTTATTCAATTGCGATAATCTTGGTTTTCTTTTCAGTTTCTTTAGGGCGGGAGATAGTAAGTGCAATCT
B20: LCN2_apta30 (ssDNA)
DNA: ATACCAGCTTATTCAATTGCACGGGTAAGAAAACGGGGAACTTGAAAGTAGTGCTGTGAGATAGTAAGTGCAATCT
B21: LCN2_apta31 (ssDNA)
DNA: ATACCAGCTTATTCAATTCCCGATCAGAACATCGGCTCTTATACCCGTTTTGGTCACGAGATAGTAAGTGCAATCT
B22: LCN2_apta7 (ssDNA)
DNA: ATACCAGCTTATTCAATTCCGCGTCACCTCACTGCTCCCACTGCGTTGCGTCTCTAAGATAGTAAGTGCAATCT
B23: LCN2_apta15 (ssDNA)
DNA: ATACCAGCTTATTCAATTCCACACCAGTCCTTGTTCGTAGATCACGGTTTCTTCAGGAAGATAGTAAGTGCAATCT
B24: LCN2_apta4 (ssDNA)
DNA: ATACCAGCTTATTCAATTCGGAGGGCGGAAGCAAAGCGTAACAGAAAGCCAACACGCGAGATAGTAAGTGCAATCT
B25: LCN2_apta12 (ssDNA)
DNA: ATACCAGCTTATTCAATTCAGGGAAAGGTTACGCGACACATTAGTTTTGAGTCCGTTCAGATAGTAAGTGCAATCT
B26: LCN2_apta2 (ssDNA)
DNA: ATACCAGCTTATTCAATTCCACAGTAGGTGAGGTTCACTGAGTTATCCATTGTTGGCAAGATAGTAAGTGCAATCT
B27: LCN2_apta33 (ssDNA)
DNA: ATACCAGCTTATTCAATTCACGACGATAGTGCAGTGGATACATTCGGCCCTTACCATGAGATAGTAAGTGCAATCT
B28: LCN2_apta25 (ssDNA)
DNA: ATACCAGCTTATTCAATTGCCACTCGACATGCTTGCCTGTACACTAAAACACTATTCAGATAGTAAGTGCAATCT
B29: LCN2_apta16 (ssDNA)
DNA: ATACCAGCTTATTCAATTCCGCGTCACCTCACTGCTCCCACCTGCGTTGCGTCTCTAAGATAGTAAGTGCAATCT
B30: LCN2_apta17 (ssDNA)
DNA: ATACCAGCTTATTCAATTCACGTGCGACAGGGGGATCTGGCTTTATCCCAGCGTGTTAAGATAGTAAGTGCAATCT
B31: LCN2_apta3 (ssDNA)
DNA: ATACCAGCTTATTCAATTCCCAAGGGCGAGCTGGCGGCTTGTTGCATAAATTCGTGGAGATAGTAAGTGCAATCT

Sequence of Lipocalin-2 (LCN2, NGAL) (P80188 21-198): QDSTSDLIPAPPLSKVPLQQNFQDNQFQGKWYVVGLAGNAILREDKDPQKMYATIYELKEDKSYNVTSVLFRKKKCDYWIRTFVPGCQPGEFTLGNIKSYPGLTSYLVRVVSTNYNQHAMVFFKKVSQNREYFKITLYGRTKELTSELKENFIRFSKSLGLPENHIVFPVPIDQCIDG

The data set addresses Lipocalin-2 (LCN2, NGAL) (human, UniProt P80188 21-198). Kind of data set: SPR (BIAcore 3000, CM5 chip); SPR BIAcore 3000, 24 C, LCN2 amine-coupled to CM5 chip; running buffer for the Kd assay not stated (HBS-EP used for SA-chip activation). The conditions noted are these: protein: recombinant; tags: C-terminal polyhistidine. In general terms: SPR reads the build-up and loss of mass on a sensor chip optically.
With B1, the binding result was “no binding”.

B2: the Kd is 158 nM. On the same count and under the same terms, with B3 the figure was 2870 nM; with B4, 0.801 nM.

Regarding B5, the dissociation constant Kd was 872 nM. Still for that read-out and setting: with B6 the figure was 0.0816 nM; with B7, 0.000647 nM. Consider B8, for which the Kd amounted to 118 nM. Still for that read-out and setting: the result for B9 reads 10.9 nM. As for B10, the binding result was “no binding”. As to B11, the dissociation constant Kd is 3380 nM. Consider B12, for which the Kd came to 8440 nM.

For B13, the Kd is 99.9 nM.

In the case of B14, the Kd was 66.6 nM.

As for B15, the binding result is “no binding”. Still for that read-out and setting: with B16 the entry was “no binding”. For B17, the equilibrium dissociation constant (Kd) came to 565 nM. On the same count and under the same terms, with B18 the figure was 3.42 nM; with B19, 13.9 nM; with B20, 86.4 nM. For B21, the Kd turned out to be 1780 nM. Same read-out and setting: the result for B22 reads 1.1 nM. As for B23, the binding result was “no binding”. Consider B24, for which the Kd came out at 0.0609 nM. In the case of B25, the equilibrium dissociation constant (Kd) turned out to be 84.5 nM. As to B26, the Kd was 0.00224 nM.

Regarding B27, the binding result is given as “no binding”. For B28, the binding result was “no binding”.

In the case of B29, the dissociation constant (Kd) is 220 nM. Take B30: the binding result is “no binding”. Regarding B31, the dissociation constant Kd was 0.00719 nM.
